Test results: patent US6767887

Tests used:
GLP-1-(7-36)-NH2, P01275 = molecular target: T1, GLP-1-(7-36)-NH2, P01275
T1 chain: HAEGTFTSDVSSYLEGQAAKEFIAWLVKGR

[1] = molecular target: T2, [Ala^2,Nle^14,Arg^30]-Ex-3-(1-30)-NH2
T2 chain: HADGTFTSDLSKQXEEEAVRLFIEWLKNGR

B1: dipeptidyl peptidase IV (protein)
chain: MKTPWKVLLGLLGAAALVTIITVPVVLLNKGTDDATADSRKTYTLTDYLKNTYRLKLYSLRWISDHEYLYKQENNILVFNAEYGNSSVFLENSTFDEFGHSINDYSISPDGQFILLEYNYVKQWRHSYTASYDIYDLNKRQLITEERIPNNTQWVTWSPVGHKLAYVWNNDIYVKIEPNLPSYRITWTGKEDIIYNGITDWVYEEEVFSAYSALWWSPNGTFLAYAQFNDTEVPLIEYSFYSDESLQYPKTVRVPYPKAGAVNPTVKFFVVNTDSLSSVTNATSIQITAPASMLIGDHYLCDVTWATQERISLQWLRRIQNYSVMDICDYDESSGRWNCLVARQHIEMSTTGWVGRFRPSEPHFTLDGNSFYKIISNEEGYRHICYFQIDKKDCTFITKGTWEVIGIEALTSDYLYYISNEYKGMPGGRNLYKIQLSDYTKVTCLSCELNPERCQYYSVSFSKEAKYYQLRCSGPGLPLYTLHSSVNDKGLRVLEDNSALDKMLQNVQMPSKKLDFIILNETKFWYQMILPPHFDKSKKYPLLLDVYAGPCSQKADTVFRLNWATYLASTENIIVASFDGRGSGYQGDKIMHAINRRLGTFEVEDQIEAARQFSKMGFVDNKRIAIWGWSYGGYVTSMVLGSGSGVFKCGIAVAPVSRWEYYDSVYTERYMGLPTPEDNLDHYRNSTVMSRAENFKQVEYLLIHGTADDNVHFQQSAQISKALVDVGVDFQAMWYTDEDHGIASSTAHQHIYTHMSHFIKQCFSLP
- Substrate for DDP-IV (GLP-1-(7-36)-NH2, P01275): 50% proteolysis
- Substrate for DDP-IV [1]: no proteolysis
